# Laboratory results from patent US20240425588A1 (APEXIMMUNE THERAPEUTICS, published 2024).
# T1: human TIGIT expressed on the cell surface of Jurkat cells (human, UniProt Q495A1 22-244)
# T1 construct: also called Jurkat-hTIGIT; cell surface TIGIT
# T1 sequence: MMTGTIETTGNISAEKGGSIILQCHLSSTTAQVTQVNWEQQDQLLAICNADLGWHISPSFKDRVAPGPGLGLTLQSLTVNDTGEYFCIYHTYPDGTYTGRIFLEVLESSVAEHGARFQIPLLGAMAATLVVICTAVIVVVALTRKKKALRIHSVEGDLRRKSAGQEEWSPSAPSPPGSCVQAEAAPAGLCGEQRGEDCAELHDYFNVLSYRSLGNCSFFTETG
# Target: T1, human TIGIT expressed on the cell …
# Assay: flow cytometry on Jurkat-hTIGIT cells
# Protocol: Supernatants from ELISA-positive clones or purified antibodies were further tested for their ability to bind to human TIGIT or rhesus TIGIT expressed on the cell surface of Jurkat cells (Jurkat-hTIGIT or Jurkat-rhesTIGIT) by flow cytometry. Jurkat-hTIGIT or Jurkat-rhesTIGIT cells were harvested and 1×10⁵ cells per well plated in 96-well U-bottom plates and the supernatant removed. 50 μl of hybridoma supernatant or purified antibody at the specified dilution or concentration was added to each well and incubated at 4° C. for 30 minutes. Assay plates were washed 2 times with PBS and antibody binding detected using a PE-labeled goat anti-mouse antibody (Biolegend) at 1:400 dilution in PBS for 30 minutes at 4° C. Plates were washed 2 times and analyzed on a BD LSRFortessa X-20 flow cytometer (Becton Dickinson).
row,Binder,binding result
1,"45.62B12.G5 (antibody, V domains shown, Mouse hybridoma antibody, tested as supernatant or protein G purified) VH: DVQLQESGPGLVKPSQSLSLTCTVTGYSITSAYDWHWIRHFPGNILEWMGYIRNSGSTNYNPLLKSRISITHDTSQNHFSLKLNSVTTEDTATYYCARGLFWYFDVWGAGTTVTVSS VL: DIQMTQSPASLSASVGETVTITCRASENIYNYLTWYQQKQGKSPQLLVYNAKTLAEGVPSRFSGSGSGTQFSLKINSLQPEDFGSYYCQHHYGNPLTFGAGTKLELK",binds
2,"45.86C5.C3 (antibody, V domains shown, Mouse hybridoma antibody, tested as supernatant or protein G purified) VH: DVQLQESGPGLVKPSQSLSLTCTVTGYSITSGYDWHWIRHFPGNILEWMGYISDSGNTIYSPSLKSRISITHDTSKNHFFLKLNSVTSEDTATYYCARGSFWYFDVWGAGTTVTVSS VL: DIQMTQSPASLSASVGETVTITCRVSENIYSYLAWYQQKQGKSPQLLVYNTKTLAEGVPSRFSGSGSGTQFSLKINSLQPEDFGSYYCQHHYGNPLTFGAGTKLELK",binds
3,"45.32A8.G6 (antibody, V domains shown, Mouse hybridoma antibody, tested as supernatant or protein G purified) VH: QVQLKESGPGLVAPSHSLSITCTVSGFSLTNYNINWIRQPPGKGLEWLGIIWTGGGTNYNSAFMSTLSINKDNSKSQVFLKMNRMQTDDTTIYYCVRETYFNNYGFYFDYWGQSTTLTVSS VL: EIVLTQSPTTMAASPGEKITITCSASSSISSNYLHWYQQKPGFSPKLLIYRTSNLASGVPARFSGSGSGTSYSLTIGTMEAEDVATYYCQQGSSIPRTFGGGTKLEIK",binds
4,"hu32B10 (45.32B10.A4) (antibody, V domains shown, Humanized antibody; also called humanized 45.32B10.A4) VH: EVQLLESGGGLVQPGGSLRLSCAASGFTFSNYVMSWVRQAPGKGLEWVSTITSGGTYTYYPDSVKGRFTISRDNSKNTLYLQMNSLRAEDTAVYYCTRWLLSLYAMDYWGQGTTVTVSS VL: DIQMTQSPSSLSASVGDRVTITCRASQDISNFLNWYQQKPGKAVKLLLYYTSRLHSGVPSRFSGSGSGTDYTLTISSLQPEDFATYFCQQGKTYPYTFGGGTKVEIK",binds
5,"45.3D7.F7 (antibody, V domains shown, Mouse hybridoma antibody, tested as supernatant or protein G purified) VH: QVQLQQSGPELVKPGASVKISCKASGYGFSGYWMNWVKQGPGKGLEWIGRIFPGDGDTDYNGKLKDKATLTAYKSSSTAYLQLSSLTSEDSAVYFCARWLGGFTSWGQGTLVTVSA VL: QIVLSQSPAILSASPGEKVTMTCRASASVSYMHWYQQKPGSSPKPWIYATSNLASGVPARFSGSGSGTSYSLTISRVEAEDAATYYCQQWSSDPPTFGAGTKLELK",binds

# The next lines start with the values.
row,binding result,Binder
1,binds,"45.32B10.A4 (antibody, V domains shown, Mouse hybridoma antibody, tested as supernatant or protein G purified) VH: EVQLVESGGVLVKPGGSLKLSCAASGFTFSNYVMSWVRQTPEKRLEWVATITSGGTYTYYPDSVKGRFTISRDNAKNILYLQMSSLRSEDTALYYCTRWLLSLYAMDYWGQGTSVTVSS VL: DIQMTQTTSSLSASLGDRVTITCRASQDISNFLNWYQQKPDGTVKLLIYYTSRLHSGVPSRFSGSGSGTDYSLTISNLEQEDIATYFCQQGKTYPYTFGGGTKVEIK"
2,binds,"45.56F7.A1 (antibody, V domains shown, Mouse hybridoma antibody, tested as supernatant or protein G purified) VH: EVQLVESGGALVKPGGSLKLSCAASGFTFSNYAMSWVRQTPEKRLEWVATISSGGSYTYYPDSVKGRFTISRDNAKNTLYLQMSSLRSEDTALYYCARWLLSLYAMDYWGQGTSVTVSS VL: DFQMTQTTSSLSASLGDRVTISCRSSQDISNYLNWYQQKPDGTVKLLIYRTSRLHSGVPSRFSGSGSGTDYSLTISNLEREDIATYFCQQGKTPPYTFGGGTKLEIK"
3,binds,"45.75D4.D3.D9 (antibody, V domains shown, Mouse hybridoma antibody, tested as supernatant or protein G purified) VH: EVQLQQSGPELVKPGASMKMSCKASGYKFTSYVMHWVKQKPGQGLEWIGYIDPYNDGSKYNEKFKGKATLTSDKSSSIAYMELSSLTSEDSAVFYCARGGSRGWYFDVWGAGTTVTVSS VL: DIQMTQSPASLSASVGETVTFTCRTNENIYSYLTWYQQKQGKSPQVLVYNAKTLAEGVPSRFSGSGSGTQFSLKINSLQPEDFGSYFCQHHFGNPLTFGAGTKLELK"
4,binds,"45.87B8.H2.H5 (antibody, V domains shown, Mouse hybridoma antibody, tested as supernatant or protein G purified) VH: DVQLQESGPGLVKPSQSLSLTCTVTGYSITSAYDWHWIRLFPGHILEWMGYISYSGNTIYNPSLKSRISITHDTSKNHFFLKLNSVTTEDTATYYCARGSFWYFDVWGAGTTVTVSS VL: DIQMTQSPASLSASVGETVTITCRVSEHIYNYLAWYQQKQGKSPQLLVYNAKTLAEGVPSRFSGSGSGTQFSLKINSLQPEDFGTYYCQHNYGNPLTFGAGTKVELK"
5,binds,"45.50C2.A6 (antibody, V domains shown, Mouse hybridoma antibody, tested as supernatant or protein G purified) VH: QVQLKESGPGLVAPSQSLSITCTVSGFSLTNYNINWIRQPPGKGLEWLGVIWTGGGTNYNSAFMSRLSISKDNSKSQVFLKMNRLQTDDTAIYYCVREAYFSNYGFYFDYWGQGTTLTVSS VL: EIVLTQSPTTMAASPGEKITITCSASSSISSNYLHWYQQKPGFSPKLLIYRTSNLASGVPARFSGSGSGTSYSLTIGTMEAEDVATYYCQQGSSIPRTFGGGTKLEIK"
